From patent publication US8603473B2

Biological target: bovine submaxillary mucin, a source of the TAG-72 antigen (bovine)
Assay: binding activity of the Chx-DTPA conjugate; assay not given

HuCC49 CH2 domain-deleted sc(Fv)2 tetravalent antibody conjugated with the chelator Chx-DTPA
avidity against conjugated control parent huCC49: 5 to 6 fold
